B1: Hairpin Ribozyme (parent)
chain: GUCCUCUUUCACGUGCGCGUGAAAGAGAGAAGUGAACCAGAGAAACACACGUUGUGGUAUAUUACCUGGUA
B2: HDV Ribozyme (parent)
chain: GGCCGGCAUGGUCCCAGCCUCCUCGCUGGCGCCGGCUGGGCAACAUUCCGAGGGGACCGUCCCCUCGGUAAUGGCGAAUGGGACCCA

Variants of: B1
Assay: self-cleavage, relative activity (ratio to wild type); higher = more cleavage; co-transcriptional
G1A G25A gave a self-cleavage of 0.245.
In the case of G1A G25U, the self-cleavage is reported as 0.102.
For G1C A44U, the self-cleavage was 0.295.
G1A A61U gave a self-cleavage of 0.0641.
G1A G17C gave a self-cleavage of 0.12.
G1A A26C showed a self-cleavage of 0.147.
With G1A G15A the self-cleavage was 0.208.
Variant G1A G15U has a self-cleavage of 0.0969.
For G1A C12U, the self-cleavage was 0.266.
For G1A U5G, the self-cleavage was 0.14.
For G1A U52C, the self-cleavage was 0.181.
With G1A A31U the self-cleavage was 0.284.
With G1A A31C the self-cleavage was 0.132.
Work on G1A A30U yielded a self-cleavage of 0.159.
G1A C46U showed a self-cleavage of 0.225.
G1A G21C showed a self-cleavage of 0.119.
G1A U63A showed a self-cleavage of 0.146.
Work on G1A U63G yielded a self-cleavage of 0.284.
In the case of G1A C37A, the self-cleavage is reported as 0.0752.
With G1A A28U the self-cleavage was 0.0496.
In the case of G1A A28G, the self-cleavage is reported as 0.196.
For G1A G19U, the self-cleavage was 0.13.
For G1A G19C, the self-cleavage was 0.203.
In the case of G1A G19A, the self-cleavage is reported as 0.203.
G1A A45U showed a self-cleavage of 0.106.
Variant G1A A39U has a self-cleavage of 0.154.
For G1A U58C, the self-cleavage was 0.216.
In the case of G1A C16A, the self-cleavage is reported as 0.172.
For G1A G42A, the self-cleavage was 0.122.
For G1A G13A, the self-cleavage was 0.161.
With G1C A41U the self-cleavage was 0.229.
Work on G1C A41C yielded a self-cleavage of 0.411.
G1A G69C showed a self-cleavage of 0.137.
G1A G69A showed a self-cleavage of 0.164.
G1A G27A showed a self-cleavage of 0.144.
G1A G27U gave a self-cleavage of 0.153.
G1A A71U showed a self-cleavage of 0.196.
For G1A A71C, the self-cleavage was 0.435.
G1A A23G showed a self-cleavage of 0.123.
Variant G1A A23C has a self-cleavage of 0.221.
G1A U62G showed a self-cleavage of 0.0492.
For G1A U62C, the self-cleavage was 0.133.
Work on G1C A22C yielded a self-cleavage of 0.274.
G1A A64C showed a self-cleavage of 0.0979.
For G1C A47C, the self-cleavage was 0.0859.
G1A A11C showed a self-cleavage of 0.139.
G1A A11G gave a self-cleavage of 0.0942.
For G1A G29U, the self-cleavage was 0.157.
For G1A G29A, the self-cleavage was 0.157.
G1A G29C showed a self-cleavage of 0.196.
For G1C A35C, the self-cleavage was 0.0578.
Variant G1A U2A has a self-cleavage of 0.574.
Work on G1A C10G yielded a self-cleavage of 0.207.
For G1A C38G, the self-cleavage was 0.157.
For G1C A28C, the self-cleavage was 0.262.
Variant G1A A36C has a self-cleavage of 0.215.
In the case of G1A U14G, the self-cleavage is reported as 0.195.
Variant G1A U14C has a self-cleavage of 0.166.
G1C A24U gave a self-cleavage of 0.19.
For G1C A30U, the self-cleavage was 0.0862.
G1A A44U showed a self-cleavage of 0.17.
In the case of G1A U60C, the self-cleavage is reported as 0.248.
G1A U60G showed a self-cleavage of 0.194.
For G1A A41C, the self-cleavage was 0.134.
In the case of G1C A45U, the self-cleavage is reported as 0.217.
Variant G1A C3A has a self-cleavage of 0.115.
Variant G1A C3U has a self-cleavage of 0.136.
In the case of G1A A35U, the self-cleavage is reported as 0.142.
Work on G1A A43C yielded a self-cleavage of 0.144.
With G1C A39U the self-cleavage was 0.187.
In the case of G1C A31C, the self-cleavage is reported as 0.284.
Work on G1A A24U yielded a self-cleavage of 0.191.
G1A A24C showed a self-cleavage of 0.18.
Variant G1A A24G has a self-cleavage of 0.159.
For G1A U8C, the self-cleavage was 0.265.
With G1A U8A the self-cleavage was 0.232.
For G1C A43U, the self-cleavage was 0.171.
In the case of G1C A43C, the self-cleavage is reported as 0.0543.
Work on G1A U7C yielded a self-cleavage of 0.31.
Work on G1A U7A yielded a self-cleavage of 0.127.
Variant G1A U53A has a self-cleavage of 0.12.
With G1A U53C the self-cleavage was 0.0768.
G1A U53G showed a self-cleavage of 0.0863.
G1A U55G gave a self-cleavage of 0.0224.
With G1A U70G the self-cleavage was 0.0827.
Work on G1A U67A yielded a self-cleavage of 0.193.
In the case of G1A U67G, the self-cleavage is reported as 0.116.
G1A A22G showed a self-cleavage of 0.223.
G1C A49U showed a self-cleavage of 0.252.
G1C A49C showed a self-cleavage of 0.159.
G1C A49G gave a self-cleavage of 0.315.
For G1A G51U, the self-cleavage was 0.274.
With G1A C50U the self-cleavage was 0.135.
In the case of G1A C66A, the self-cleavage is reported as 0.164.
Work on G1A C66U yielded a self-cleavage of 0.127.

Variants of: B2
Assay: as above
Work on G28A U46G yielded a self-cleavage of 0.0665.
U9A C14A showed a self-cleavage of 0.65.
For G10U U72C, the self-cleavage was 0.193.
For C18A U72A, the self-cleavage was 0.0504.
Variant G2U C58U has a self-cleavage of 0.109.
A16C G31A showed a self-cleavage of 0.297.
Variant G81A C84G has a self-cleavage of 0.237.
U20G G40U showed a self-cleavage of 0.131.
U9C G73A showed a self-cleavage of 0.675.
Work on G55A C63U yielded a self-cleavage of 0.913.
For C64U A78U, the self-cleavage was 0.297.
U60C C85A gave a self-cleavage of 0.712.
G28C C48G gave a self-cleavage of 0.138.
Variant C48U C64A has a self-cleavage of 0.554.
C49A G55C gave a self-cleavage of 0.927.
Variant C4G C30G has a self-cleavage of 0.
Variant C3U C64G has a self-cleavage of 0.915.
In the case of A16U G53U, the self-cleavage is reported as 0.985.
Variant C14U G59C has a self-cleavage of 1.01.
C13G G82A showed a self-cleavage of 0.0519.
Variant G40A C64U has a self-cleavage of 0.925.
In the case of G10U G29A, the self-cleavage is reported as 0.0536.
Variant C13U C30U has a self-cleavage of 0.261.
With C30U C64U the self-cleavage was 0.806.
U46G U79G showed a self-cleavage of 0.787.
In the case of C30A C86U, the self-cleavage is reported as 0.68.
Work on G10A C41A yielded a self-cleavage of 0.604.
C13A C22U showed a self-cleavage of 0.0583.
For A16U G38U, the self-cleavage was 0.253.
Work on U37G G54A yielded a self-cleavage of 0.0755.
C58A U79C showed a self-cleavage of 0.554.
C18A C41U gave a self-cleavage of 0.0339.
Variant G28C U72A has a self-cleavage of 0.151.
For C33A C85A, the self-cleavage was 0.18.
With A51U A56G the self-cleavage was 1.11.
Variant U27A G34C has a self-cleavage of 0.0978.
Work on G1A U72C yielded a self-cleavage of 0.107.
U79A C84G showed a self-cleavage of 0.256.
A51C C84G showed a self-cleavage of 0.536.
G29A U79G showed a self-cleavage of 0.154.
With G29U C41G the self-cleavage was 0.0302.
A16C C64G showed a self-cleavage of 0.554.
C4G U46C showed a self-cleavage of 0.
In the case of G38U C63G, the self-cleavage is reported as 0.0978.
For G25A A70C, the self-cleavage was 0.138.
A43C G53A showed a self-cleavage of 0.554.
Work on G52A G54A yielded a self-cleavage of 0.9.
In the case of C58G U69C, the self-cleavage is reported as 1.36.
Work on G55A G81U yielded a self-cleavage of 0.34.
G38C C44A showed a self-cleavage of 0.0354.
Variant G25U G54C has a self-cleavage of 0.122.
C36G C85U showed a self-cleavage of 0.151.
For G2U G39A, the self-cleavage was 0.00989.
For G5U U12G, the self-cleavage was 0.356.
For G39A C63A, the self-cleavage was 0.538.
In the case of C19U G59A, the self-cleavage is reported as 0.145.
In the case of C3A U23G, the self-cleavage is reported as 0.352.
In the case of C41A G54C, the self-cleavage is reported as 1.08.
For G34C U37C, the self-cleavage was 0.156.
G35C A43U gave a self-cleavage of 0.0386.
Work on A51U G52A yielded a self-cleavage of 1.15.
G29A A42U showed a self-cleavage of 0.222.
Work on C48A A77C yielded a self-cleavage of 0.237.
For C4G G52U, the self-cleavage was 0.215.
Variant C4G G52A has a self-cleavage of 0.47.
In the case of G29C G59A, the self-cleavage is reported as 0.0332.
Variant A16C C22U has a self-cleavage of 0.369.
With C48U U60C the self-cleavage was 1.27.
Variant C14G A43G has a self-cleavage of 0.0978.
Work on C24G A45U yielded a self-cleavage of 0.0504.
G38U G40C showed a self-cleavage of 0.0923.
Variant C32A U60A has a self-cleavage of 0.252.

Reference: the RNAGym collection of RNA variant scans (doi:10.7554/elife.80360)
